Source: the RNAGym collection of RNA variant scans (doi:10.7554/elife.80360)

B1: Hammerhead Ribozyme (parent)
chain: ACCGGAUGUGCUUUCCGGUCUGAUGAGUCCGUGAGGACGAAACAG

Variants of: B1
Assay: self-cleavage, relative activity (ratio to wild type); higher = more cleavage; co-transcriptional
ACCGGAUGUGCUGUCCGGUCUGAGGAGUCCGUGAGGACGAAACAG showed a self-cleavage of 0.654.
Variant ACCGGAUGUGCUUUCCGGUCUGAUGAGUCUGUGAGGUCGAAACAG has a self-cleavage of 0.643.
In the case of ACCGGAUGUGCUUUCCGGUCUCAUGAGUCCGAGAGGACGAAACAG, the self-cleavage is reported as 0.371.
With ACCGGAUGUGCUUUCCGGUCUGAUGAGCCCGUGAGGACGAAACGG the self-cleavage was 1.11.
ACCGGAUGUGCUUUCCGGUCUGAUGAGACCGUGAGGACAAAACAG gave a self-cleavage of 0.422.
Work on ACCGGAUGUGCAUUCCGGUCUGAUGAGUCCGUGAGUACGAAACAG yielded a self-cleavage of 0.596.
Work on ACCGGAUGUGUUUUCCGGUCUGUUGAGUCCGUGAGGACGAAACAG yielded a self-cleavage of 0.338.
Work on ACCGGAUGUGCUUUCCGGUCUGAUGCGUCCGUGAGGACGAAACAU yielded a self-cleavage of 0.45.
With ACCGGAUGUGCUUUCCGGUCUGUUGAGUCCGUGAGGACGCAACAG the self-cleavage was 0.348.
With ACCGGAUGUGCUUUCCGGUCUGAUGAGUCCGUGAGAACGAGACAG the self-cleavage was 0.344.
Work on ACCGGAUGUGCUUUCUGGUCUGAUGAGUCCGAGAGGACGAAACAG yielded a self-cleavage of 1.02.
Variant ACCGGAUUUGCUUUCCGGUCUGAUGAGUCCGUGAGCACGAAACAG has a self-cleavage of 0.885.
With ACCGGAUGUGCUUUCCGGUCUGAUGAGUCCAUGAGUACGAAACAG the self-cleavage was 0.552.
ACCGGAUGUGCUUUCCGGUCUGAUGAGUCCGCGAGGACGAACCAG gave a self-cleavage of 0.316.
ACCGGAUGUGCGUUCCGGUCUGAUGAGUCCGUGUGGACGAAACAG gave a self-cleavage of 0.897.
With ACCGGAUGUGCUUUCCGGUGUGAUGAGUCCGUGAGGACGAAAAAG the self-cleavage was 0.353.
ACCGCAUGUGCUUUCCGGUCUCAUGAGUCCGUGAGGACGAAACAG showed a self-cleavage of 0.243.
Variant ACCGGAUGUGCUUUCCGGUCUGAUGAGUCCGUGAGCGCGAAACAG has a self-cleavage of 0.748.
With ACAGGAUGUGCUUUCCGGUCUGAUGGGUCCGUGAGGACGAAACAG the self-cleavage was 0.253.
For ACCGGAUGUGAUUUCCGGUCUGAUGAGUCCGUGAGGACGAAACAC, the self-cleavage was 0.97.
ACCGGAUGUGCUUUCCGGUCUGAUGAGUGCGUGAGGAUGAAACAG gave a self-cleavage of 0.703.
Variant ACCGGAUGUGCUUUCCGGUCUGAUGAGCCCGUGAAGACGAAACAG has a self-cleavage of 0.638.
For ACCGGAUGUGCUUUCCGGUCUGAGGAGUCCGUGAGGACCAAACAG, the self-cleavage was 0.266.
Work on ACCGGAUGUGCUUUCCGGUCUGCUGAGUCCGUGAGGUCGAAACAG yielded a self-cleavage of 0.42.
In the case of ACCGGAUGCGCUUUCCGGUCUGAUGAGUCCGUGAGGACCAAACAG, the self-cleavage is reported as 0.434.
In the case of ACCGUAUGUGCUUUCCGGUCUGAUGAGUCCGUGCGGACGAAACAG, the self-cleavage is reported as 0.833.
Work on ACCGGAUGUGCUUUCCGCUCUGAUGAGUCAGUGAGGACGAAACAG yielded a self-cleavage of 0.451.
In the case of ACCGGAUGUGCUUUCCGGUCUGAUGUGUCCGUGAGGACCAAACAG, the self-cleavage is reported as 0.378.
ACCGGAUGUGCUUUCCGGUCUGAUGACUCCGUGAGGACGUAACAG showed a self-cleavage of 0.356.
With ACCGGACGUGCUUUCCGGUCUGAUGAGUCCGGGAGGACGAAACAG the self-cleavage was 0.626.
ACCGGAUGUGCUUUCCGGUCUGAUGAGUCCGCGAGGACGAUACAG gave a self-cleavage of 0.474.
With ACCGGAUGUGCUUUCCGGUCUGAUGAGUCCGUGAGGUUGAAACAG the self-cleavage was 0.714.
Variant ACAGGAUGUGCUUUCCGGUCUGAUGAGUCCGUGAGGACGAAACAU has a self-cleavage of 0.448.
With ACCGAGUGUGCUUUCCGGUCUGAUGAGUCCGUGAGGACGAAACAG the self-cleavage was 0.82.
AGCGGGUGUGCUUUCCGGUCUGAUGAGUCCGUGAGGACGAAACAG showed a self-cleavage of 0.292.
With ACCGGAGGUGCUUUCCGGUCUGAUGAGUCCGUGAGGACUAAACAG the self-cleavage was 0.365.
In the case of ACCGGAUGUGCUUUCCGGUCUGAUGAGACCGUGAGGACGAAUCAG, the self-cleavage is reported as 0.341.
ACUGGAUGUGCUUUCCGGUCUUAUGAGUCCGUGAGGACGAAACAG showed a self-cleavage of 0.381.
ACCGGAUGUGCUUUCCGGUCUGCUGAAUCCGUGAGGACGAAACAG gave a self-cleavage of 0.341.
Work on ACCGGAUGUGCUUUCCGGUCUGAUGAGUCCGUGAGGACGAGACAC yielded a self-cleavage of 0.402.
Work on ACCGGAUAUGCUUUCCGGUCUGAUGAGUCCGUGAGGACGAACCAG yielded a self-cleavage of 0.373.
Variant ACCGGAUGUGCUUUCCCGUCUGAUGAGUCCGGGAGGACGAAACAG has a self-cleavage of 0.545.
ACCGGAUGUGCUUUCCGGUCUGAGGAGUCCGUGAGAACGAAACAG showed a self-cleavage of 0.862.
Variant ACCGGAUGUGCUCUCCGGUCUGGUGAGUCCGUGAGGACGAAACAG has a self-cleavage of 0.419.
With ACCUGAUGUGCUUUCCGGUCUGAUGAGUCCGUAAGGACGAAACAG the self-cleavage was 0.608.
Work on ACCGGAUGUGCUUUCCCGUCUGAUGAGUCCGUGAGGACGAAACUG yielded a self-cleavage of 0.414.
Work on ACGGGAUGUGCCUUCCGGUCUGAUGAGUCCGUGAGGACGAAACAG yielded a self-cleavage of 0.394.
With ACCGGAUGUGCUUUGCGGUCUGAUGAGUCCGUUAGGACGAAACAG the self-cleavage was 1.
In the case of ACCGGAUGUGCUUUCCGGUCUUAUGAGGCCGUGAGGACGAAACAG, the self-cleavage is reported as 0.294.
With ACCGCAUGUGCUUUACGGUCUGAUGAGUCCGUGAGGACGAAACAG the self-cleavage was 0.953.
UCCGGAUGUGCUUUCCGGUCUGAUGAGUUCGUGAGGACGAAACAG showed a self-cleavage of 0.595.
ACCGGAUGUCCUUUCCGGUCUGAUGAGUCCGUGAGGACGAAAAAG gave a self-cleavage of 0.354.
ACCGGAUGUGCCUUCCGGUCUGAUGAGUCCGUCAGGACGAAACAG showed a self-cleavage of 0.817.
ACAGGAUGUGCUUUCCGGUCUAAUGAGUCCGUGAGGACGAAACAG gave a self-cleavage of 0.308.
Work on ACCGGAUGUGCUUUCCGGUCUGAAGAAUCCGUGAGGACGAAACAG yielded a self-cleavage of 0.7.
Work on ACCGGAUGUGCUUUCCGGUCUGAUGAGUCCGUGAGGAUGAAACCG yielded a self-cleavage of 0.596.
In the case of ACCGGAUGUGCUUUCCGGGCUGAUGAGUCCGUGAGGACGAAACCG, the self-cleavage is reported as 0.361.
